According to US20180187179:
Residue numbers refer to the chain shown, from its start. Numbers in names are those of the source.

T1: β-casein, P02666
T1 chain: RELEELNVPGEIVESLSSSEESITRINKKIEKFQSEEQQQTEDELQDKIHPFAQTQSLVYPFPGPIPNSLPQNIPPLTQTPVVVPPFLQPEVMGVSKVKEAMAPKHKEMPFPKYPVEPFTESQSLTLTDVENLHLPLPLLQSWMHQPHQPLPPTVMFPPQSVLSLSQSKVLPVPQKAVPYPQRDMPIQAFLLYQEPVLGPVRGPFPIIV

B1: camel chymosin variant 283 (F282E+N100Q+N291Q) (protein)
chain: GKVAREPLTSYLDSQYFGKIYIGTPPQEFTVVFDTGSSDLWVPSIYCKSNVCKNHHRFDPRKSSTFRNLGKPLSIHYGTGSMEGFLGYDTVTVSNIVDPQQTVGLSTEQPGEVFTYSEFDGILGLAYPSLASEYSVPVFDNMMDRHLVARDLFSVYMDRNGQGSMLTLGAIDPSYYTGSLHWVPVTLQQYWQFTVDSVTINGVAVACVGGCQAILDTGTSVLFGPSSDILKIQMAIGATENRYGEFDVNCGNLRSMPTVVFEINGRDYPLSPSAYTSKDQGECTSGFQGDQNSELWILGDVFIREYYSVFDRANNRVGLAKAI
B2: camel chymosin variant 285 (R254S+N100Q+N291Q) (protein)
chain: B1 chain with R254S, E282F
B3: camel chymosin variant 286 (R242E+N100Q+N291Q) (protein)
chain: B1 chain with R242E, E282F

Biological target: T1, β-casein, P02666
Conditions: scale: % cleavage of non-glycosylated camel chymosin
B1 was tested, and the β(193-209): cleavage of β-casein at position 192/193 was 79. In the case of B2, the β(193-209): cleavage of β-casein at position 192/193 is reported as 78. In the case of B3, the β(193-209): cleavage of β-casein at position 192/193 is reported as 89.
